Experimental findings from the supplement of paper PMC5998384 are described below.

For data set [1], the system named is HeLa Kyoto. Kind of data set: thermal stability score vs G1/S (z-score of summed log2 fold changes over temperatures); higher = more thermally stable than in G1/S.
For data set [2], the system named is HeLa Kyoto. Kind of data set: solubility change mitosis vs G1/S (difference of NP-40 vs SDS log2 ratios) (log2 ratio difference); higher = more soluble in mitosis.
Data set [3] has as its system HeLa Kyoto. Kind of data set: solubility in G1/S (NP-40 vs SDS abundance) (log2 ratio); higher = more soluble. Particulars: cell cycle stage: G1/S.
The subject of data set [4] is HeLa Kyoto. In words: melting temperature (median over replicates), in situ; higher = more thermally stable.
The mark [5] stands for this setting: cell cycle stage: early G1 (4.5 h after nocodazole release).
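For melting temperature (median over replicates), in situ in this document: HeLa Kyoto cells synchronized by double thymidine or nocodazole block, proteins quantified by TMT10plex mass spectrometry, three independent biological replicates.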
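For solubility change mitosis vs G1/S (difference of NP-40 vs SDS log2 ratios) in this document: synchronized HeLa Kyoto cells (double thymidine block for G1/S, nocodazole release for mitosis), protein amounts in NP-40 versus SDS lysates quantified by mass spectrometry, three biological replicates.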
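For solubility in G1/S (NP-40 vs SDS abundance) in this document: HeLa Kyoto cells arrested at G1/S by double thymidine block, proteins quantified by TMT10plex mass spectrometry in mild NP-40 versus SDS extracts, three biological replicates.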
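For thermal stability score vs G1/S (z-score of summed log2 fold changes over temperatures) in this document: synchronized HeLa Kyoto cells, proteins quantified by TMT10plex mass spectrometry, three biological replicates, mitosis taken 0.5 h after nocodazole release, G1/S directly after double thymidine block.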

With “MADNEKLDNQRLKNFKNKGRDLETMRRQRNEVVVELRKNKRDEHLLKRRNVPHEDICEDSDIDGDYRVQNTSLEAIVQNASSDNQGIQLSAVQAARKLLSSDRNPPIDDLIKSGILPILVHCLERDDNPSLQFEAAWALTNIASGTSEQTQAVVQSNAVPLFLRLLHSPHQNVCEQAVWALGNIIGDGPQCRDYVISLGVVKPLLSFISPSIPITFLRNVTWVMVNLCRHKDPPPPMETIQEILPALCVLIHHTDVNILVDTVWALSYLTDAGNEQIQMVIDSGIVPHLVPLLSHQEVKVQTAALRAVGNIVTGTDEQTQVVLNCDALSHFPALLTHPKEKINKEAVWFLSNITAGNQQQVQAVIDANLVPMIIHLLDKGDFGTQKEAAWAISNLTISGRKDQVAYLIQQNVIPPFCNLLTVKDAQVVQVVLDGLSNILKMAEDEAETIGNLIEECGGLEKIEQLQNHENEDIYKLAYEIIDQFFSSDDIDEDPSLVPEAIQGGTFGFNSSANVPTEGFQF [KPNA4]”, the results for the thermal stability score with HeLa Kyoto [1] (setting [5]) and in the data set on HeLa Kyoto [1] (cell cycle stage: mitosis) were -0.466 and -0.221, respectively. In the data set with HeLa Kyoto [2], the “solubility change mitosis (log2)” value is -0.0591. In the data set with HeLa Kyoto [3], the “solubility in G1/S (log2)” value was 0.0932. In addition, the melting temperature with HeLa Kyoto [4] (cell cycle stage: G1/S) is 52.3 °C; in the data set on HeLa Kyoto [4] (cell cycle stage: mitosis), 51.9 °C.

As for “MADTQYILPNDIGVSSLDCREAFRLLSPTERLYAYHLSRAAWYGGLAVLLQTSPEAPYIYALLSRLFRAQDPDQLRQHALAEGLTEEEYQAFLVYAAGVYSNMGNYKSFGDTKFVPNLPKEKLERVILGSEAAQQHPEEVRGLWQTCGELMFSLEPRLRHLGLGKEGITTYFSGNCTMEDAKLAQDFLDSQNLSAYNTRLFKEVDGEGKPYYEVRLASVLGSEPSLDSEVTSKLKSYEFRGSPFQVTRGDYAPILQKVVEQLEKAKAYAANSHQGQMLAQYIESFTQGSIEAHKRGSRFWIQDKGPIVESYIGFIESYRDPFGSRGEFEGFVAVVNKAMSAKFERLVASAEQLLKELPWPPTFEKDKFLTPDFTSLDVLTFAGSGIPAGINIPNYDDLRQTEGFKNVSLGNVLAVAYATQREKLTFLEEDDKDLYILWKGPSFDVQVGLHELLGHGSGKLFVQDEKGAFNFDQETVINPETGEQIQSWYRSGETWDSKFSTIASSYEECRAESVGLYLCLHPQVLEIFGFEGADAEDVIYVNWLNMVRAGLLALEFYTPEAFNWRQAHMQARFVILRVLLEAGEGLVTITPTTGSDGRPDARVRLDRSKIRSVGKPALERFLRRLQVLKSTGDVAGGRALYEGYATVTDAPPECFLTLRDTVLLRKESRKLIVQPNTRLEGSDVQLLEYEASAAGLIRSFSERFPEDGPELEEILTQLATADARFWKGPSEAPSGQA [DPP3]”, the thermal stability score in the data set on HeLa Kyoto [1] (setting [5]) was -0.363; in the data set on HeLa Kyoto [1] (cell cycle stage: mitosis), -1.69. The “solubility change mitosis (log2)” value in the data set with HeLa Kyoto [2] was -0.14. Further, the “solubility in G1/S (log2)” value in the data set with HeLa Kyoto [3] is 0.153. In addition, the melting temperature was determined as 53.8 °C in the data set on HeLa Kyoto [4] (cell cycle stage: G1/S) and 53 °C in the data set with HeLa Kyoto [4] (cell cycle stage: mitosis).

On to “MADYSTVPPPSSGSAGGGGGGGGGGGVNDAFKDALQRARQIAAKIGGDAGTSLNSNDYGYGGQKRPLEDGDQPDAKKVAPQNDSFGTQLPPMHQQQSRSVMTEEYKVPDGMVGFIIGRGGEQISRIQQESGCKIQIAPDSGGLPERSCMLTGTPESVQSAKRLLDQIVEKGRPAPGFHHGDGPGNAVQEIMIPASKAGLVIGKGGETIKQLQERAGVKMVMIQDGPQNTGADKPLRITGDPYKVQQAKEMVLELIRDQGGFREVRNEYGSRIGGNEGIDVPIPRFAVGIVIGRNGEMIKKIQNDAGVRIQFKPDDGTTPERIAQITGPPDRCQHAAEIITDLLRSVQAGNPGGPGPGGRGRGRGQGNWNMGPPGGLQEFNFIVPTGKTGLIIGKGGETIKSISQQSGARIELQRNPPPNADPNMKLFTIRGTPQQIDYARQLIEEKIGGPVNPLGPPVPHGPHGVPGPHGPPGPPGPGTPMGPYNPAPYNPGPPGPAPHGPPAPYAPQGWGNAYPHWQQQAPPDPAKAGTDPNSAAWAAYYAHYYQQQAQPPPAAPAGAPTTTQTNGQGDQQNPAPAGQVDYTKAWEEYYKKMGQAVPAPTGAPPGGQPDYSAAWAEYYRQQAAYYAQTSPQGMPQHPPAPQGQ [FUBP1]”, for which the thermal stability score in the data set with HeLa Kyoto [1] (setting [5]) was -0.104; with HeLa Kyoto [1] (cell cycle stage: mitosis), -0.787. In addition, in the data set on HeLa Kyoto [2], the “solubility change mitosis (log2)” value was 0.0996. Besides, in the data set on HeLa Kyoto [3], the “solubility in G1/S (log2)” value worked out at 0.527. Besides, the melting temperature with HeLa Kyoto [4] (cell cycle stage: G1/S) was 57 °C; in the data set with HeLa Kyoto [4] (cell cycle stage: mitosis), 56.4 °C.
